Substrate in the series: O=S(=O)(O)O
Nature of the series: cells, lysate or membranes. Format: cell-based, Homo sapiens. Particulars: ND96(Cl-) bath, pH 7.4, extracellular sulfate, labelled compound.

B1: human SLC26A1 (Homo sapiens) (protein)
chain: MDESPEPLQQGRGPVPVRRQRPAPRGLREMLKARLWCSCSCSVLCVRALVQDLLPATRWLRQYRPREYLAGDVMSGLVIGIILVPQAIAYSLLAGLQPIYSLYTSFFANLIYFLMGTSRHVSVGIFSLLCLMVGQVVDRELQLAGFDPSQDGLQPGANSSTLNGSAAMLDCGRDCYAIRVATALTLMTGLYQVLMGVLRLGFVSAYLSQPLLDGFAMGASVTILTSQLKHLLGVRIPRHQGPGMVVLTWLSLLRGAGQANVCDVVTSTVCLAVLLAAKELSDRYRHRLRVPLPTELLVIVVATLVSHFGQLHKRFGSSVAGDIPTGFMPPQVPEPRLMQRVALDAVALALVAAAFSISLAEMFARSHGYSVRANQELLAVGCCNVLPAFLHCFATSAALAKSLVKTATGCRTQLSSVVSATVVLLVLLALAPLFHDLQRSVLACVIVVSLRGALRKVWDLPRLWRMSPADALVWAGTAATCMLVSTEAGLLAGVILSLLSLAGRTQRPRTALLARIGDTAFYEDATEFEGLVPEPGVRVFRFGGPLYYANKDFFLQSLYSLTGLDAGCMAARRKEGGSETGVGEGGPAQGEDLGPVSTRAALVPAAAGFHTVVIDCAPLLFLDAAGVSTLQDLRRDYGALGISLLLACCSPPVRDILSRGGFLGEGPGDTAEEEQLFLSVHDAVQTARARHRELEATDAHL
As for B1, the K0.5 is 0.26 ± 0.04 mM.

The values are drawn from article PMC4956541.
